The supplement of paper PMC10567573

B1: SMTNL2 (parent)
chain: QKNFELAFTMAENLANCERLIEVE
B2: PKD2L1 (parent)
chain: SGPEAARAGGWVSGEEFYMLTRRV

Variants of: B1
Experiment: protein stability index of a GFP-peptide fusion (GPS, HEK-293T) (PSI 1-6); higher = more stable
Conditions: c terminus: a fixed tail appended
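Note: lentivirally expressed fusions sorted by FACS into six bins by GFP to DsRed ratio, PSI derived from sequencing read proportions per bin multiplied by bin number.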

Variant	protein stability index
QKNFELAFTMAENLANCERLIEVL	1.56
QKNFELAFTMAENLANCERLIEVQ	1.33
QKNFELAFTMAENLANCERLIEVY	2.13
QKNFELAFTMAENLANCERLIEVN	2.11
QKNFELAFTMAENLANCERLIEVM	1.89
QKNFELAFTMAENLANCERLIEVV	1.45
QKNFELAFTMAENLANCERLIEVT	1.95
QKNFELAFTMAENLANCERLIEVS	1.36
QKNFELAFTMAENLANCERLIEVR	2.4
QKNFELAFTMAENLANCERLIEVP	2.15
QKNFELAFTMAENLANCERLIEVK	2.22

Variants of: B2
Experiment: as above
Conditions: c terminus: a fixed tail appended

Variant	protein stability index
SGPEAAKAGGWVSGEEFYMLTRRV	2.72
SGPEAAGAGGWVSGEEFYMLTRRV	2.24
SGPEAATAGGWVSGEEFYMLTRRV	2.44
SGPEAAEAGGWVSGEEFYMLTRRV	2.75
SGPEAAWAGGWVSGEEFYMLTRRV	2.6
SGPEAAVAGGWVSGEEFYMLTRRV	2.56
SGPEAAMAGGWVSGEEFYMLTRRV	2.64
SGPEAAFAGGWVSGEEFYMLTRRV	2.9
SGPEAASAGGWVSGEEFYMLTRRV	2.42
SGPEAAYAGGWVSGEEFYMLTRRV	2.31
SGPEAALAGGWVSGEEFYMLTRRV	2.58
SGPEAAPAGGWVSGEEFYMLTRRV	2.68
SGPEAANAGGWVSGEEFYMLTRRV	2.44
SGPEAAIAGGWVSGEEFYMLTRRV	2.11
SGPEAAQAGGWVSGEEFYMLTRRV	3.04
SGPEASRAGGWVSGEEFYMLTRRV	3.01
SGPEAKRAGGWVSGEEFYMLTRRV	2.12
SGPEAIRAGGWVSGEEFYMLTRRV	2.02
SGPEAVRAGGWVSGEEFYMLTRRV	3.13
SGPEAMRAGGWVSGEEFYMLTRRV	1.7
SGPEAFRAGGWVSGEEFYMLTRRV	1.68
SGPEANRAGGWVSGEEFYMLTRRV	2.85
SGPEARRAGGWVSGEEFYMLTRRV	2.43
SGPEAERAGGWVSGEEFYMLTRRV	2.65
SGPEAYRAGGWVSGEEFYMLTRRV	2.4
SGPEATRAGGWVSGEEFYMLTRRV	2.86

Variant	protein stability index
SGPEALRAGGWVSGEEFYMLTRRV	3.07
SGPEAPRAGGWVSGEEFYMLTRRV	2.21
SGPEAGRAGGWVSGEEFYMLTRRV	3.16
SGPEAHRAGGWVSGEEFYMLTRRV	2.24
SGPEAWRAGGWVSGEEFYMLTRRV	1.06
SGPEACRAGGWVSGEEFYMLTRRV	2.31
SGPEADRAGGWVSGEEFYMLTRRV	2.35
SGPEAQRAGGWVSGEEFYMLTRRV	2.13
SGPEGARAGGWVSGEEFYMLTRRV	3.07
SGPEPARAGGWVSGEEFYMLTRRV	2.2
SGPESARAGGWVSGEEFYMLTRRV	1.96
SGPERARAGGWVSGEEFYMLTRRV	2.4
SGPEQARAGGWVSGEEFYMLTRRV	2.45
SGPELARAGGWVSGEEFYMLTRRV	2.19
SGPEFARAGGWVSGEEFYMLTRRV	2.24
SGPEWARAGGWVSGEEFYMLTRRV	2.06
SGPETARAGGWVSGEEFYMLTRRV	1.82
SGPEEARAGGWVSGEEFYMLTRRV	2.32
SGPEYARAGGWVSGEEFYMLTRRV	2.18
SGPEMARAGGWVSGEEFYMLTRRV	2.58
SGPEDARAGGWVSGEEFYMLTRRV	2.71
SGPEVARAGGWVSGEEFYMLTRRV	3.28
SGPEKARAGGWVSGEEFYMLTRRV	1.96
SGPENARAGGWVSGEEFYMLTRRV	2.18
SGPEHARAGGWVSGEEFYMLTRRV	2.03
SGPECARAGGWVSGEEFYMLTRRV	1.98

Variant	protein stability index
SGPEIARAGGWVSGEEFYMLTRRV	2.33
SKPEAARAGGWVSGEEFYMLTRRV	1.8
SYPEAARAGGWVSGEEFYMLTRRV	1.72
SFPEAARAGGWVSGEEFYMLTRRV	1.83
SHPEAARAGGWVSGEEFYMLTRRV	2.17
SMPEAARAGGWVSGEEFYMLTRRV	3.57
SRPEAARAGGWVSGEEFYMLTRRV	2.24
SDPEAARAGGWVSGEEFYMLTRRV	2.24
SCPEAARAGGWVSGEEFYMLTRRV	1.67
SQPEAARAGGWVSGEEFYMLTRRV	2.64
SAPEAARAGGWVSGEEFYMLTRRV	2
SWPEAARAGGWVSGEEFYMLTRRV	2.91
SVPEAARAGGWVSGEEFYMLTRRV	2.27
SPPEAARAGGWVSGEEFYMLTRRV	2.08
STPEAARAGGWVSGEEFYMLTRRV	2.94
SEPEAARAGGWVSGEEFYMLTRRV	3.1
SNPEAARAGGWVSGEEFYMLTRRV	2.93
SSPEAARAGGWVSGEEFYMLTRRV	2.19
SGKEAARAGGWVSGEEFYMLTRRV	2.37
SGEEAARAGGWVSGEEFYMLTRRV	2.43
SGSEAARAGGWVSGEEFYMLTRRV	2.02
SGCEAARAGGWVSGEEFYMLTRRV	2.11
SGDEAARAGGWVSGEEFYMLTRRV	2.04
SGFEAARAGGWVSGEEFYMLTRRV	1.83
SGGEAARAGGWVSGEEFYMLTRRV	2.63
SGWEAARAGGWVSGEEFYMLTRRV	1.74

Variant	protein stability index
SGHEAARAGGWVSGEEFYMLTRRV	2.32
SGMEAARAGGWVSGEEFYMLTRRV	2.2
SGVEAARAGGWVSGEEFYMLTRRV	2.14
SGQEAARAGGWVSGEEFYMLTRRV	2.44
SGNEAARAGGWVSGEEFYMLTRRV	2.59
SGTEAARAGGWVSGEEFYMLTRRV	2.4
SGREAARAGGWVSGEEFYMLTRRV	1.78
SGYEAARAGGWVSGEEFYMLTRRV	1.49
SGAEAARAGGWVSGEEFYMLTRRV	2.38
SGIEAARAGGWVSGEEFYMLTRRV	2.16
SGLEAARAGGWVSGEEFYMLTRRV	1.91
SGPCAARAGGWVSGEEFYMLTRRV	1.81
SGPRAARAGGWVSGEEFYMLTRRV	2.44
SGPLAARAGGWVSGEEFYMLTRRV	1.6
SGPWAARAGGWVSGEEFYMLTRRV	1.3
SGPMAARAGGWVSGEEFYMLTRRV	2.35
SGPDAARAGGWVSGEEFYMLTRRV	2.59
SGPIAARAGGWVSGEEFYMLTRRV	2.02
SGPTAARAGGWVSGEEFYMLTRRV	1.78
SGPFAARAGGWVSGEEFYMLTRRV	1.71
SGPKAARAGGWVSGEEFYMLTRRV	1.94
SGPHAARAGGWVSGEEFYMLTRRV	2.28
SGPGAARAGGWVSGEEFYMLTRRV	2.42
SGPVAARAGGWVSGEEFYMLTRRV	1.56
SGPNAARAGGWVSGEEFYMLTRRV	2.64
SGPQAARAGGWVSGEEFYMLTRRV	1.57

Variant	protein stability index
SGPSAARAGGWVSGEEFYMLTRRV	3.46
SGPPAARAGGWVSGEEFYMLTRRV	2.08
SGPYAARAGGWVSGEEFYMLTRRV	1.92
SGPEAARAGPWVSGEEFYMLTRRV	2.37
SGPEAARAGNWVSGEEFYMLTRRV	2.55
SGPEAARAGWWVSGEEFYMLTRRV	2.53
SGPEAARAGSWVSGEEFYMLTRRV	2.32
SGPEAARAGRWVSGEEFYMLTRRV	2.56
SGPEAARAGCWVSGEEFYMLTRRV	1.82
SGPEAARAGLWVSGEEFYMLTRRV	2.17
SGPEAARAGQWVSGEEFYMLTRRV	2.91
SGPEAARAGTWVSGEEFYMLTRRV	2.73
SGPEAARAGAWVSGEEFYMLTRRV	2.22
SGPEAARAGVWVSGEEFYMLTRRV	1.72
SGPEAARAGHWVSGEEFYMLTRRV	3.21
SGPEAARAGIWVSGEEFYMLTRRV	3.36
SGPEAARAGDWVSGEEFYMLTRRV	3.01
SGPEAARAGKWVSGEEFYMLTRRV	2.64
SGPEAARAGEWVSGEEFYMLTRRV	3.31
SGPEAARAGMWVSGEEFYMLTRRV	2.31
SGPEAARTGGWVSGEEFYMLTRRV	2.24
SGPEAARFGGWVSGEEFYMLTRRV	1.7
SGPEAAREGGWVSGEEFYMLTRRV	3.22
SGPEAARMGGWVSGEEFYMLTRRV	1.8
SGPEAARYGGWVSGEEFYMLTRRV	1.76
SGPEAARLGGWVSGEEFYMLTRRV	2.02

Variant	protein stability index
SGPEAARIGGWVSGEEFYMLTRRV	1.76
SGPEAARNGGWVSGEEFYMLTRRV	2.18
SGPEAARDGGWVSGEEFYMLTRRV	2.43
SGPEAARHGGWVSGEEFYMLTRRV	1.81
SGPEAARVGGWVSGEEFYMLTRRV	2.25
SGPEAARKGGWVSGEEFYMLTRRV	2.13
SGPEAARSGGWVSGEEFYMLTRRV	2.31
SGPEAARRGGWVSGEEFYMLTRRV	2.03
SGPEAARPGGWVSGEEFYMLTRRV	2.05
SGPEAARWGGWVSGEEFYMLTRRV	2.71
SGPEAARQGGWVSGEEFYMLTRRV	2.65
SGPEAARCGGWVSGEEFYMLTRRV	1.97
SGPEAARGGGWVSGEEFYMLTRRV	2.15
VGPEAARAGGWVSGEEFYMLTRRV	2.67
DGPEAARAGGWVSGEEFYMLTRRV	2.35
PGPEAARAGGWVSGEEFYMLTRRV	2.35
AGPEAARAGGWVSGEEFYMLTRRV	2.81
KGPEAARAGGWVSGEEFYMLTRRV	2.75
FGPEAARAGGWVSGEEFYMLTRRV	1.12
LGPEAARAGGWVSGEEFYMLTRRV	1.5
NGPEAARAGGWVSGEEFYMLTRRV	2.65
HGPEAARAGGWVSGEEFYMLTRRV	2.53
WGPEAARAGGWVSGEEFYMLTRRV	2.85
MGPEAARAGGWVSGEEFYMLTRRV	2.04
IGPEAARAGGWVSGEEFYMLTRRV	2.64
YGPEAARAGGWVSGEEFYMLTRRV	1.46

Variant	protein stability index
QGPEAARAGGWVSGEEFYMLTRRV	3.02
EGPEAARAGGWVSGEEFYMLTRRV	2.68
TGPEAARAGGWVSGEEFYMLTRRV	2.68
SGPEAARAYGWVSGEEFYMLTRRV	2.21
SGPEAARAMGWVSGEEFYMLTRRV	1.97
SGPEAARAKGWVSGEEFYMLTRRV	1.97
SGPEAARACGWVSGEEFYMLTRRV	1.59
SGPEAARAVGWVSGEEFYMLTRRV	1.85
SGPEAARADGWVSGEEFYMLTRRV	2.5
SGPEAARATGWVSGEEFYMLTRRV	1.92
SGPEAARAPGWVSGEEFYMLTRRV	2.39
SGPEAARARGWVSGEEFYMLTRRV	1.95
SGPEAARANGWVSGEEFYMLTRRV	2.13
SGPEAARAHGWVSGEEFYMLTRRV	2.03
SGPEAARAAGWVSGEEFYMLTRRV	1.92
SGPEAARAEGWVSGEEFYMLTRRV	2.5
SGPEAARAQGWVSGEEFYMLTRRV	2.51
SGPEAARALGWVSGEEFYMLTRRV	2.95
SGPEAARAFGWVSGEEFYMLTRRV	2.06
SGPEAARAIGWVSGEEFYMLTRRV	2.25
SGPEAARASGWVSGEEFYMLTRRV	2.42
